Results published in the Human Domainome abundance scans (Beltran et al. 2025).
± gives the uncertainty stated by the source.

B1: Advillin, residues 785 to 819; numbered along this chain, O75366 (parent)
chain: LSEQDFVSVFGITRGQFAALPGWKQLQMKKEKGLF

Variants of: B1
Assay: abundance fitness (aPCA) (normalised: wild type 0, dead -1); higher = more abundant; growth selection in yeast, the domain comes from the species named
Settings: Homo sapiens
Work on LSEQDFVSVFGITRGQFAALPGWKRLQMKKEKGLF [Q25R] yielded an abundance fitness of -0.187 ± 0.07.
LSEQDFVSVFGITRGQFAALPGWKSLQMKKEKGLF [Q25S] gave an abundance fitness of -0.735 ± 0.14.
Variant LSEQDFVSVFGITRGQFAALPGWKELQMKKEKGLF [Q25E] has an abundance fitness of -0.593 ± 0.069.
With LSEQDFVSVFGITRGQFAALPGWKGLQMKKEKGLF [Q25G] the abundance fitness was -0.568 ± 0.073.
In the case of LSEQDFVSVFGITRGQFAALPGWKVLQMKKEKGLF [Q25V], the abundance fitness is reported as -0.604 ± 0.11.
Variant LSEQDFVSVFGITRGQFAALPGWKALQMKKEKGLF [Q25A] has an abundance fitness of -0.525 ± 0.066.
Work on LSEQDFVSVFGITRGQFAALPGWKNLQMKKEKGLF [Q25N] yielded an abundance fitness of -0.407 ± 0.12.
LSEQDFVSVFGITRGQFAALPGWKWLQMKKEKGLF [Q25W] showed an abundance fitness of -1.4 ± 0.15.
LSEQDFVSVFGITRGQFAALPGWKCLQMKKEKGLF [Q25C] showed an abundance fitness of -0.846 ± 0.17.
LSEQDFVSVFGITRGQFAALPGWKLLQMKKEKGLF [Q25L] gave an abundance fitness of -0.456 ± 0.074.
LSEQDFVSVFGITRGQFAALPGWKTLQMKKEKGLF [Q25T] showed an abundance fitness of -0.405 ± 0.15.
In the case of LSEQDFVSVFGITRGQFAALPGWKMLQMKKEKGLF [Q25M], the abundance fitness is reported as -0.507 ± 0.12.
With LSEQDFVSVFGITRGQFAALPGWKKLQMKKEKGLF [Q25K] the abundance fitness was -0.31 ± 0.081.
In the case of LSEQDFVSVFGITRGQFAALPGWKQLQMIKEKGLF [K29I], the abundance fitness is reported as -0.218 ± 0.12.
With LSEQDFVSVFGITRGQFAALPGWKQLQMAKEKGLF [K29A] the abundance fitness was -0.183 ± 0.061.
For LSEQDFVSVFGITRGQFAALPGWKQLQMDKEKGLF [K29D], the abundance fitness was -0.356 ± 0.18.
With LSEQDFVSVFGITRGQFAALPGWKQLQMHKEKGLF [K29H] the abundance fitness was -0.099 ± 0.11.
Variant LSEQDFVSVFGITRGQFAALPGWKQLQMGKEKGLF [K29G] has an abundance fitness of -0.266 ± 0.065.
Work on LSEQDFVSVFGITRGQFAALPGWKQLQMLKEKGLF [K29L] yielded an abundance fitness of -0.289 ± 0.071.
With LSEQDFVSVFGITRGQFAALPGWKQLQMCKEKGLF [K29C] the abundance fitness was -0.024 ± 0.06.
For LSEQDFVSVFGITRGQFAALPGWKQLQMFKEKGLF [K29F], the abundance fitness was -0.005 ± 0.26.
For LSEQDFVSVFGITRGQFAALPGWKQLQMMKEKGLF [K29M], the abundance fitness was -0.187 ± 0.16.
In the case of LSEQDFVSVFGITRGQFAALPGWYQLQMKKEKGLF [K24Y], the abundance fitness is reported as -0.805 ± 0.49.
Work on LSEQDFVSVFGITRGQFAALPGWVQLQMKKEKGLF [K24V] yielded an abundance fitness of -0.279 ± 0.12.
With LSEQDFVSVFGITRGQFAALPGWSQLQMKKEKGLF [K24S] the abundance fitness was -0.304 ± 0.097.
Work on LSEQDFVSVFGITRGQFAALPGWTQLQMKKEKGLF [K24T] yielded an abundance fitness of -0.446 ± 0.3.
LSEQDFVSVFGITRGQFAALPGWKQLQHKKEKGLF [M28H] showed an abundance fitness of -0.549 ± 0.2.
For LSEQDFVSVFGITRGQFAALPGWKQLQTKKEKGLF [M28T], the abundance fitness was -1.03 ± 0.15.
LSEQDFVSVFGITRGQFAALPGWKQLQVKKEKGLF [M28V] gave an abundance fitness of -1.03 ± 0.18.
In the case of LSEQDFVSVFGITRGQFAALPGWKQLQCKKEKGLF [M28C], the abundance fitness is reported as -0.75 ± 0.16.
With LSEQDFVSVFGITRGQFAALPGWKQLQIKKEKGLF [M28I] the abundance fitness was -0.619 ± 0.27.
Work on LSEQDFVSVFGITRGQFAALPGWKQLQGKKEKGLF [M28G] yielded an abundance fitness of -1.13 ± 0.097.
LSEQDFVSVFGITRGQFAALPGWKQLQLKKEKGLF [M28L] gave an abundance fitness of -0.47 ± 0.11.
LSEQDFVSVFGITRGQFAALPGWKQLQKKKEKGLF [M28K] gave an abundance fitness of -0.708 ± 0.19.
LSEQDFVSVFGITRGQFAALPGWKQLQSKKEKGLF [M28S] gave an abundance fitness of -1.14 ± 0.19.
In the case of LSEQDFVSVFGITRGQFAALPGWKQLQPKKEKGLF [M28P], the abundance fitness is reported as -1.19 ± 0.26.
For LSEQDFVSVFGITRGQFAALPGWKQLQAKKEKGLF [M28A], the abundance fitness was -0.905 ± 0.15.
Work on LSEQDFVSVFGITRGQFAALPGWKQLQRKKEKGLF [M28R] yielded an abundance fitness of -1.14 ± 0.11.
In the case of LSEQDFVSVFGITRGQFAALPGWKQLSMKKEKGLF [Q27S], the abundance fitness is reported as -0.183 ± 0.063.
Variant LSEQDFVSVFGITRGQFAALPGWKQLKMKKEKGLF [Q27K] has an abundance fitness of -0.064 ± 0.063.
Variant LSEQDFVSVFGITRGQFAALPGWKQLFMKKEKGLF [Q27F] has an abundance fitness of -0.416 ± 0.3.
For LSEQDFVSVFGITRGQFAALPGWKQLMMKKEKGLF [Q27M], the abundance fitness was -0.293 ± 0.11.
LSEQDFVSVFGITRGQFAALPGWKQLTMKKEKGLF [Q27T] gave an abundance fitness of -0.459 ± 0.07.
LSEQDFVSVFGITRGQFAALPGWKQLGMKKEKGLF [Q27G] gave an abundance fitness of -0.333 ± 0.061.
In the case of LSEQDFVSVFGITRGQFAALPGWKQLWMKKEKGLF [Q27W], the abundance fitness is reported as -0.37 ± 0.066.
LSEQDFVSVFGITRGQFAALPGWKQLHMKKEKGLF [Q27H] gave an abundance fitness of 0.108 ± 0.26.
LSEQDFVSVFGITRGQFAALPGWKQLRMKKEKGLF [Q27R] gave an abundance fitness of -0.186 ± 0.052.
For LSEQDFVSVFGITRGQFAALPGWKQLEMKKEKGLF [Q27E], the abundance fitness was 0.098 ± 0.075.
With LSEQDFVSVFGITRGQFAALPGWKQLDMKKEKGLF [Q27D] the abundance fitness was -0.3 ± 0.21.
LSEQDFVSVFGITRGQFAALPGWKQLVMKKEKGLF [Q27V] showed an abundance fitness of -0.139 ± 0.058.
LSEQDFVSVFGITRGQFAALPGWKQLLMKKEKGLF [Q27L] gave an abundance fitness of -0.297 ± 0.061.
Work on LSEQDFVSVFGITRGQFAALPGWKQLCMKKEKGLF [Q27C] yielded an abundance fitness of -0.432 ± 0.084.
LSEQDFVSVFGITRGQFAALPGWKQLAMKKEKGLF [Q27A] gave an abundance fitness of -0.125 ± 0.061.
Work on LSEQDFVSVFGITRGQFAALPGWKQLPMKKEKGLF [Q27P] yielded an abundance fitness of -0.589 ± 0.083.
For LSEQDFVSVFGITRGQFAALPGWKQVQMKKEKGLF [L26V], the abundance fitness was 0.073 ± 0.057.
Work on LSEQDFVSVFGITRGQFAALPGWKQRQMKKEKGLF [L26R] yielded an abundance fitness of -0.033 ± 0.058.
LSEQDFVSVFGITRGQFAALPGWKQGQMKKEKGLF [L26G] showed an abundance fitness of -0.146 ± 0.067.
LSEQDFVSVFGITRGQFAALPGWKQAQMKKEKGLF [L26A] showed an abundance fitness of 0.034 ± 0.063.
In the case of LSEQDFVSVFGITRGQFAALPGWKQYQMKKEKGLF [L26Y], the abundance fitness is reported as -0.174 ± 0.15.
Work on LSEQDFVSVFGITRGQFAALPGWKQIQMKKEKGLF [L26I] yielded an abundance fitness of -0.181 ± 0.16.
For LSEQDFVSVFGITRGQFAALPGWKQMQMKKEKGLF [L26M], the abundance fitness was -0.114 ± 0.063.
With LSEQDFVSVFGITRGQFAALPGWKQPQMKKEKGLF [L26P] the abundance fitness was -0.914 ± 0.18.
In the case of LSEQDFVSVFGITRGQFAALPGWKQKQMKKEKGLF [L26K], the abundance fitness is reported as 0.068 ± 0.089.
LSEQDFVSVFGITRGQFAALPGWKQFQMKKEKGLF [L26F] gave an abundance fitness of -0.185 ± 0.15.
Variant LSEQDFVSVFGITRGQFAALPGWKQSQMKKEKGLF [L26S] has an abundance fitness of 0.069 ± 0.07.
Work on LSEQDFVSVFGITRGQFAALPGWKQHQMKKEKGLF [L26H] yielded an abundance fitness of -0.132 ± 0.14.
LSEQDFVSVFGITRGQFAALPGWKQCQMKKEKGLF [L26C] gave an abundance fitness of -0.606 ± 0.089.
For LSEQDFVSVFGITRGQFAALPGWKQDQMKKEKGLF [L26D], the abundance fitness was -0.01 ± 0.083.
LSEQDFVSVFGITRGQFAALPGWKQTQMKKEKGLF [L26T] gave an abundance fitness of -0.075 ± 0.064.
With LSEQDFVSVFGITRGQFAALPGWKQQQMKKEKGLF [L26Q] the abundance fitness was 0.12 ± 0.11.
